Data reported in paper PMC7610862 (Nature microbiology, 2021).

T1: FliP (Salmonella enterica serovar Typhimurium, UniProt P54700 22-245)
T1 sequence (looked up): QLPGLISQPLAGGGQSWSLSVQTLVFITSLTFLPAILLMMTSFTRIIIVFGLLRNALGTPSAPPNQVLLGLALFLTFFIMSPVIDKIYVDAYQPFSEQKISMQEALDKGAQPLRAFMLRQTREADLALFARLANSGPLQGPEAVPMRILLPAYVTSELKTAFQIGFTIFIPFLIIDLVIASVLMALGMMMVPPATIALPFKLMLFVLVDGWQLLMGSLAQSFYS

B1: FlgB (natural protein, Salmonella enterica serovar Typhimurium, UniProt P16437 1-138, looked up)
chain: MLDRLDAALRFQQEALNLRAQRQEILAANIANADTPGYQARDIDFASELKKVMVRGREETGGVALTLTSSHHIPAQAVSSPAVDLLYRVPDQPSLDGNTVDMDRERTQFADNSLKYQMGLTVLGSQLKGMMNVLQGGN
B2: FlgG (natural protein, Salmonella enterica serovar Typhimurium, UniProt P0A1J3 1-260, looked up)
chain: MISSLWIAKTGLDAQQTNMDVIANNLANVSTNGFKRQRAVFEDLLYQTIRQPGAQSSEQTTLPSGLQIGTGVRPVATERLHSQGNLSQTNNSKDVAIKGQGFFQVMLPDGTSAYTRDGSFQVDQNGQLVTAGGFQVQPAITIPANALSITIGRDGVVSVTQQGQAAPVQVGQLNLTTFMNDTGLESIGENLYIETQSSGAPNESTPGLNGAGLLYQGYVETSNVNVAEELVNMIQVQRAYEINSKAVSTTDQMLQKLTQL
B3: FlgH (natural protein, Salmonella enterica serovar Typhimurium, UniProt P0A1N8 22-232, looked up)
chain: CAWIPAKPLVQGATTAQPIPGPVPVANGSIFQSAQPINYGYQPLFEDRRPRNIGDTLTIVLQENVSASKSSSANASRDGKTSFGFDTVPRYLQGLFGNSRADMEASGGNSFNGKGGANASNTFSGTLTVTVDQVLANGNLHVVGEKQIAINQGTEFIRFSGVVNPRTISGSNSVPSTQVADARIEYVGNGYINEAQNMGWLQRFFLNLSPM
modifications: lipidated N-terminal Cys (3 lipid moieties; diacylglycerol attached to the sidechain)
B4: FlgC (natural protein, Salmonella enterica serovar Typhimurium, UniProt P0A1I7 1-134, looked up)
chain: MALLNIFDIAGSALAAQSKRLNVAASNLANADSVTGPDGQPYRAKQVVFQVDAAPGQATGGVKVASVIESQAPEKLVYEPGNPLADANGYVKMPNVDVVGEMVNTMSASRSYQANIEVLNTVKSMMLKTLTLGQ
B5: FlgI (natural protein, Salmonella enterica serovar Typhimurium, UniProt P15930 20-365, looked up)
chain: ERIRDLTSVQGVRENSLIGYGLVVGLDGTGDQTTQTPFTTQTLNNMLSQLGITVPTGTNMQLKNVAAVMVTASYPPFARQGQTIDVVVSSMGNAKSLRGGTLLMTPLKGVDSQVYALAQGNILVGGAGASAGGSSVQVNQLNGGRITNGAIIERELPTQFGAGNTINLQLNDEDFTMAQQITDAINRARGYGSATALDARTVQVRVPSGNSSQVRFLADIQNMEVNVTPQDAKVVINSRTGSVVMNREVTLDSCAVAQGNLSVTVNRQLNVNQPNTPFGGGQTVVTPQTQIDLRQSGGSLQSVRSSANLNSVVRALNALGATPMDLMSILQSMQSAGCLRAKLEII
B6: FliF (natural protein, Salmonella enterica serovar Typhimurium, UniProt P15928 1-560, looked up)
chain: MSATASTATQPKPLEWLNRLRANPRIPLIVAGSAAVAIVVAMVLWAKTPDYRTLFSNLSDQDGGAIVAQLTQMNIPYRFANGSGAIEVPADKVHELRLRLAQQGLPKGGAVGFELLDQEKFGISQFSEQVNYQRALEGELARTIETLGPVKSARVHLAMPKPSLFVREQKSPSASVTVTLEPGRALDEGQISAVVHLVSSAVAGLPPGNVTLVDQSGHLLTQSNTSGRDLNDAQLKFANDVESRIQRRIEAILSPIVGNGNVHAQVTAQLDFANKEQTEEHYSPNGDASKATLRSRQLNISEQVGAGYPGGVPGALSNQPAPPNEAPIATPPTNQQNAQNTPQTSTSTNSNSAGPRSTQRNETSNYEVDRTIRHTKMNVGDIERLSVAVVVNYKTLADGKPLPLTADQMKQIEDLTREAMGFSDKRGDTLNVVNSPFSAVDNTGGELPFWQQQSFIDQLLAAGRWLLVLVVAWILWRKAVRPQLTRRVEEAKAAQEQAQVRQETEEAVEVRLSKDEQLQQRRANQRLGAEVMSQRIREMSDNDPRVVALVIRQWMSNDHE
B7: FlgF (natural protein, Salmonella enterica serovar Typhimurium, UniProt P16323 1-251, looked up)
chain: MDHAIYTAMGAASQTLNQQAVTASNLANASTPGFRAQLNALRAVPVDGLSLATRTLVTASTPGADMTPGQLDYTSRPLDVALQQDGWLVVQAADGAEGYTRNGNIQVGPTGQLTIQGHPVIGEGGPITVPEGSEITIAADGTISALNPGDPPNTVAPVGRLKLVKAEGNEVQRSDDGLFRLTAEAQAERGAVLAADPSIRIMSGVLEGSNVKPVEAMTDMIANARRFEMQMKVITSVDENEGRANQLLSMS
B8: FliE (natural protein, Salmonella enterica serovar Typhimurium, UniProt P26462 1-104, looked up)
chain: MAAIQGIEGVISQLQATAMAARGQDTHSQSTVSFAGQLHAALDRISDRQAAARVQAEKFTLGEPGIALNDVMADMQKASVSMQMGIQVRNKLVAAYQEVMSMQV
B9: FlgD (natural protein, Salmonella enterica serovar Typhimurium, UniProt P0A1I9 1-232, looked up)
chain: MSIAVNMNDPTNTGVKTTTGSGSMTGSNAADLQSSFLTLLVAQLKNQDPTNPLQNNELTTQLAQISTVSGIEKLNTTLGAISGQIDNSQSLQATTLIGHGVMVPGTTILAGKGAEEGAVTSTTPFGVELQQPADKVTATITDKDGRVVRTLEIGELRAGVHTFTWDGKQTDGTTVPNGSYNIAITASNGGTQLVAQPLQFALVQGVTKGSNGNLLDLGTYGTTTLDEVRQII

Assays:
Test in all cases: cryo-EM structure
FliF = target: B6
cryo-EM structure = target: the molecule itself
FlgI = target: B5
FlgB = target: B1
FlgF = target: B7
FlgG = target: B2
FliP = target: T1, FliP

Q: Does B1 bind (FliF)?
A: binds

Q: What about the “stoichiometry N” value (cryo-EM structure) of the same binder?
A: 5 copies

Q: Does B2 bind (FlgI)?
A: binds

Q: And the “stoichiometry N” value (cryo-EM structure)?
A: 24 copies

Q: Does B3 bind (FlgI)?
A: binds

Q: What about the “stoichiometry N” value (cryo-EM structure) of the same binder?
A: 26 copies

Q: Does B4 bind (FliF)?
A: binds

Q: Does B4 bind (FlgB)?
A: binds

Q: And the “stoichiometry N” value (cryo-EM structure)?
A: 6 copies

Q: Does B4 bind (FlgF)?
A: binds

Q: For B5, which “stoichiometry N” value (cryo-EM structure) is on record?
A: 26 copies

Q: For B6, which “stoichiometry N” value (cryo-EM structure) is on record?
A: 34

Q: Does B7 bind (FliF)?
A: binds

Q: And the “stoichiometry N” value (cryo-EM structure)?
A: 5 copies

Q: Does B7 bind (FlgG)?
A: binds

Q: Does B8 bind (FlgB)?
A: binds

Q: Does B8 bind (FliP)?
A: binds

Q: What does the source list for B9?
A: stoichiometry N (cryo-EM structure): 5; binding result (FlgG): binds
